Data on one molecule can be found in publication PMC3372767 (Biochimica et Biophysica Acta, 2012).

The target of test [1] is full-length ectodomain of human CSF-1R (hCSF-1R D1-D5) (human, UniProt P07333 20-517). In words: ITC. On the technique in general: In ITC the heat of successive injections is recorded.
The target in test [2] is N-terminal three Ig-like domains of human CSF-1R (hCSF-1R D1-D3) (human, UniProt P07333 20-298). In words: ITC.
Chain of N-terminal three Ig-like domains of human CSF-1R (hCSF-1R D1-D3) (P07333 20-298): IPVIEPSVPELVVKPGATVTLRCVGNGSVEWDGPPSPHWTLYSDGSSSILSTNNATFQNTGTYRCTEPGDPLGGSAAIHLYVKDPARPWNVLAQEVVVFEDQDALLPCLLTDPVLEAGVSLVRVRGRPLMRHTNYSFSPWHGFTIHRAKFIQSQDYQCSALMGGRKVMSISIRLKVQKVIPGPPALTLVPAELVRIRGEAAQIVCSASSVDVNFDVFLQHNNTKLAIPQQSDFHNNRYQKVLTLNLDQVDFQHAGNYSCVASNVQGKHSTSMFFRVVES

Chain of full-length ectodomain of human CSF-1R (hCSF-1R D1-D5) (P07333 20-517): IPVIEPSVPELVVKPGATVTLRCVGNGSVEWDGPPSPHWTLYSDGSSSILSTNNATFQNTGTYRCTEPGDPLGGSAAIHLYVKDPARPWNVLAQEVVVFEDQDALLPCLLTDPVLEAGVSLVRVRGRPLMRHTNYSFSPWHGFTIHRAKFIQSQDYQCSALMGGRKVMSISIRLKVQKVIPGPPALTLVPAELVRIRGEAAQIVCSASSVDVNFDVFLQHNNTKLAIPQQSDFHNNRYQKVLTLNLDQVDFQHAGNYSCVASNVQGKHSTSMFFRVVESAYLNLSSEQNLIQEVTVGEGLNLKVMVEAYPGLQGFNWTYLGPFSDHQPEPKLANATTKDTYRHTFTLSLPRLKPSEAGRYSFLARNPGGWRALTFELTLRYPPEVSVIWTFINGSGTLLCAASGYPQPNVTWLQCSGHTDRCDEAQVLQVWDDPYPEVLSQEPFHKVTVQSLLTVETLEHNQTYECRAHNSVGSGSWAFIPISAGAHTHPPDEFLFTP

B1: human IL-34 (ligand, UniProt Q6ZMJ4 21-242, looked up)
chain: NEPLEMWPLTQNEECTVTGFLRDKLQYRSRLQYMKHYFPINYKISVPYEGVFRIANVTRLQRAQVSERELRYLWVLVSLSATESVQDVLLEGHPSWKYLQEVETLLLNVQQGLTDVEVSPKVESVLSLLNAPGPNLKLVRPKALLDNCFRVMELLYCSCCKQSSVLNWQDCEVPSPQSCSPEPSLQYAATQLYPPPPWSPSSPPHSTGSVRPVRAQGEGLLP
Consider B1, for which, in test [1], the “fold higher affinity than to CSF-1R D1-D3” value is approximately 400 fold and the stoichiometry N (commonly a count of units in the complex or per binding partner) was found to be 1. For the same molecule, in test [2], the “stoichiometry N” value was found to be 1.
